Data published in patent US20110081661A1, “Modified photoproteins with increased affinity for calcium and enhanced bioluminescence and uses thereof” (Millipore Corporation, priority 2009, published 2011).

T1: GIP Receptor (Homo sapiens, UniProt P48546)
T1 construct: host or cells: HEK293T
T1 sequence (P48546 22-466): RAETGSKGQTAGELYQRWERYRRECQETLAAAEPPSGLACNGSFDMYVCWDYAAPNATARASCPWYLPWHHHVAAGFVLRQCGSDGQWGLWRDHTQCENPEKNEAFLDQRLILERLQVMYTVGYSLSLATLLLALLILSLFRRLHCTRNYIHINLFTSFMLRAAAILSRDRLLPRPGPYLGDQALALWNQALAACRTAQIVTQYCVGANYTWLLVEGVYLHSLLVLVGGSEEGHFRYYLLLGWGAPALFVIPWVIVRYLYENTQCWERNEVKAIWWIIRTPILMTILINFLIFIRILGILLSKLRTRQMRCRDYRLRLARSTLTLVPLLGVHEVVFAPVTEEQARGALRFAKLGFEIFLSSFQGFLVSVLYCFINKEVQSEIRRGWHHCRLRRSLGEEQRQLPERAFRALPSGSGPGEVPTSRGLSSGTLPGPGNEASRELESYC


Key:
[1] = Calcium EC50 of mitochondrially targeted photoproteins in HEK293T cells without cotransfected GPCR or G protein (Table II); assay type: cell-based; settings: no cotransfected GPCR or G protein
Source text: In an exemplary experiment, HEK293T cells (ATCC-CRL-11268) were transiently co-transfected with 2 μgs of each of pcDNA3.1-H1 (containing the cDNA encoding the H1 histamine receptor) and pcDNA3.1 containing the cDNAs encoding wild type mitochondrial Clytin (referred to as mt-Clytin), modified mitochondrial Clytin having a lysine to aspartic acid mutation at position 168 (referred to as mt-Clytin K168D), modified mitochondrial Clytin having a lysine to glutamic acid mutation at position 168 (referred to as mt-Clytin K168E), wild-type mitochondrial Obelin (referred to as mt-Obelin) or wild type mitochondrial Aequorin (referred to as mt-Aequorin) using the Targefect-293 reagent (TARGETING SYSTEMS). 48 hours later, the cells were detached using Accutase (MILLIPORE), centrifuged, and resuspended in […] in FreeStyle293 media (INVITROGEN), for incubation for 3-4 hours at room temperature in the dark. After incubation, the cells were centrifuged and resuspended in HBSS/HEPES buffer without Ca^2+ at a density of 1×10^6 cells/ml. Next, 100 μl/well of cell suspension for each transfection were added by the use of a Victor2 luminometer plate reader (WALLAC, […]), to a 96-well plate containing 50 μL/well Triton X-100 in MOPS/KCl buffer containing 10 mM EGTA and a series of Ca^2+ concentrations, such that free calcium concentrations ranged from 17 nM to 39.6 μM, followed by for measurement of total bioluminescence at 20 seconds.
(§1) Signal to background ratio was calculated as the signal induced by maximal GIP (1 μM) divided by the signal induced by buffer alone. The EC50 value for calcium was determined as described above for FIG. 2 for mitochondrially targeted photoproteins transfected into HEK293T cells in the absence of a cotransfected GPCR or G protein. Affinity for calcium was correlated with the properties of the amino acid side chain at residue 168 of Clytin.

[2] = target: T1, GIP Receptor; test: GIP receptor-mediated bioluminescence in HEK293T cells with chimeric promiscuous G protein (FIG. 5, Table II); assay type: cell-based; settings: for Max signal with GIP (RLU × 10^−5) / EC50: HEK293T cells, GIP Receptor + promiscuous G protein; for EC50: luminescence vs GIP concentration; for % GPCR/total: signal induced by maximal GIP (1 μM) as percentage of signal induced by Triton X-100 with 1 mM Ca^2+; for Signal: background with GIP: signal induced by maximal GIP (1 μM) divided by signal induced by buffer alone
Description: However, coexpression of GIP receptor with a chimeric G protein containing sequences from Gαs and Gαq enable the GIP receptor to stimulate calcium flux.
The results of the dose response curve to varying concentrations of GIP with a subset of the photoproteins are summarized in FIG. 5.
as §1
The EC50 value for receptor-mediated calcium flux induced by the ligand was determined by plotting luminescence (Y-axis) versus ligand concentration applied to the cells (X-axis), and applying a sigmoidal dose-response curve-fitting algorithm (GraphPad Prism). GPCR-mediated signals of the various modified forms of Clytin having an amino acid substitution at position 168 were also related to the nature of the side chain. In addition, the subcellular location of the photoproteins (cytosolic vs mitochondrial) appeared to have an effect on GPCR-mediated signals. […] All of the other mitochondrially targeted mutants except for Clytin K168R and wild-type Clytin yielded results that were in the range of those observed for wt-Aequorin.

| Molecule | EC50 [1] [nM] | Max signal with GIP (RLU × 10^−5) [2] [RLU × 10^−5] | EC50 [2] [nM] | % GPCR/total [2] [%] | Signal: background with GIP [2] | Calcium EC50 (nM) [1] |
| --- | --- | --- | --- | --- | --- | --- |
| K168T (protein) MADTASKYAVKLRPNFDNPKWVNRHKFMFNFLDINGDGKITLDEIVSKASDDICAKLGATPEQTKRHQDAVEAFFKKIGMDYGKEVEFPAFVDGWKELANYDLKLWSQNKKSLIRDWGEAVFDIFDKDGSGSISLDEWKAYGRISGICSSDEDAEKTFKHCDLDNSGTLDVDEMTRQHLGFWYTLDPNADGLYGNFVP | 174 | – | – | – | – | – |
| K168E (protein) MADTASKYAVKLRPNFDNPKWVNRHKFMFNFLDINGDGKITLDEIVSKASDDICAKLGATPEQTKRHQDAVEAFFKKIGMDYGKEVEFPAFVDGWKELANYDLKLWSQNKKSLIRDWGEAVFDIFDKDGSGSISLDEWKAYGRISGICSSDEDAEKTFKHCDLDNSGELDVDEMTRQHLGFWYTLDPNADGLYGNFVP | 176 | – | – | – | – | – |
| K168S (protein) MADTASKYAVKLRPNFDNPKWVNRHKFMFNFLDINGDGKITLDEIVSKASDDICAKLGATPEQTKRHQDAVEAFFKKIGMDYGKEVEFPAFVDGWKELANYDLKLWSQNKKSLIRDWGEAVFDIFDKDGSGSISLDEWKAYGRISGICSSDEDAEKTFKHCDLDNSGSLDVDEMTRQHLGFWYTLDPNADGLYGNFVP | – | – | – | – | – | calcium affinities comparable to wild-type Aequorin, however, better than wt-Clytin |
| K168G (protein) MADTASKYAVKLRPNFDNPKWVNRHKFMFNFLDINGDGKITLDEIVSKASDDICAKLGATPEQTKRHQDAVEAFFKKIGMDYGKEVEFPAFVDGWKELANYDLKLWSQNKKSLIRDWGEAVFDIFDKDGSGSISLDEWKAYGRISGICSSDEDAEKTFKHCDLDNSGGLDVDEMTRQHLGFWYTLDPNADGLYGNFVP | – | – | – | – | – | calcium affinities comparable to wild-type Aequorin, however, better than wt-Clytin |
| Cyto-clytin K168E: K168E modified Clytin amino acid sequence, SEQ ID NO:11; cytosolic (protein) MADTASKYAVKLRPNFDNPKWVNRHKFMFNFLDINGDGKITLDEIVSKASDDICAKLGATPEQTKRHQDAVEAFFKKIGMDYGKEVEFPAFVDGWKELANYDLKLWSQNKKSLIRDWGEAVFDIFDKDGSGSISLDEWKAYGRISGICSSDEDAEKTFKHCDLDNSGELDVDEMTRQHLGFWYTLDPNADGLYGNFVP | – | 6.47 | 7.9 | 26.2 | 66.4 | – |
| Cyto-obelin: Wild-type Obelin (wt-Obelin) amino acid sequence, SEQ ID NO:4; cytosolic (protein, listed as Obelia longissima) MSSKYAVKLKTDFDNPRWIKRHKHMFDFLDINGNGKITLDEIVSKASDDICAKLEATPEQTKRHQVCVEAFFRGCGMEYGKEIAFPQFLDGWKQLATSELKKWARNEPTLIREWGDAVFDIFDKDGSGTITLDEWKAYGKISGISPSQEDCEATFRHCDLDNSGDLDVDEMTRQHLGFWYTLDPEADGLYGNGVP | – | 1.80 | 9.86 | 56.7 | 47 | – |

Further lines, with some results ahead:

| EC50 [1] [nM] | Max signal with GIP (RLU × 10^−5) [2] [RLU × 10^−5] | EC50 [2] [nM] | % GPCR/total [2] [%] | Signal: background with GIP [2] | Molecule | Calcium EC50 (nM) [1] |
| --- | --- | --- | --- | --- | --- | --- |
| 545 | – | – | – | – | wild-type Clytin (protein, listed as Clytia gregaria) MADTASKYAVKLRPNFDNPKWVNRHKFMFNFLDINGDGKITLDEIVSKASDDICAKLGATPEQTKRHQDAVEAFFKKIGMDYGKEVEFPAFVDGWKELANYDLKLWSQNKKSLIRDWGEAVFDIFDKDGSGSISLDEWKAYGRISGICSSDEDAEKTFKHCDLDNSGKLDVDEMTRQHLGFWYTLDPNADGLYGNFVP | – |
| 228 | 3.84 | 15.4 | 20.3 | 124.1 | Mt-clytin K168S: Mitochondrial K168S modified Clytin, SEQ ID NO:22 (protein) MSVLTPLLLRGLTGSARRLPVPRAKIHSLPPEGKLRPNFDNPKWVNRHKFMFNFLDINGDGKITLDEIVSKASDDICAKLGATPEQTKRHQDAVEAFFKKIGMDYGKEVEFPAFVDGWKELANYDLKLWSQNKKSLIRDWGEAVFDIFDKDGSGSISLDEWKAYGRISGICSSDEDAEKTFKHCDLDNSGSLDVDEMTRQHLGFWYTLDPNADGLYGNFVP | – |
| 174 | 4.26 | 13.4 | 22 | 113.4 | Mt-clytin K168T: Mitochondrial K168T modified Clytin, SEQ ID NO:24 (protein) MSVLTPLLLRGLTGSARRLPVPRAKIHSLPPEGKLRPNFDNPKWVNRHKFMFNFLDINGDGKITLDEIVSKASDDICAKLGATPEQTKRHQDAVEAFFKKIGMDYGKEVEFPAFVDGWKELANYDLKLWSQNKKSLIRDWGEAVFDIFDKDGSGSISLDEWKAYGRISGICSSDEDAEKTFKHCDLDNSGTLDVDEMTRQHLGFWYTLDPNADGLYGNFVP | – |
| 232 | 5.09 | 15.1 | 19.3 | 146.8 | Mt-clytin K168G: Mitochondrial K168G modified Clytin, SEQ ID NO:16 (protein) MSVLTPLLLRGLTGSARRLPVPRAKIHSLPPEGKLRPNFDNPKWVNRHKFMFNFLDINGDGKITLDEIVSKASDDICAKLGATPEQTKRHQDAVEAFFKKIGMDYGKEVEFPAFVDGWKELANYDLKLWSQNKKSLIRDWGEAVFDIFDKDGSGSISLDEWKAYGRISGICSSDEDAEKTFKHCDLDNSGGLDVDEMTRQHLGFWYTLDPNADGLYGNFVP | – |
| 358 | 3.82 | 21 | 10.7 | 115.9 | Mt-clytin K168N: Mitochondrial K168N modified Clytin, SEQ ID NO:18 (protein) MSVLTPLLLRGLTGSARRLPVPRAKIHSLPPEGKLRPNFDNPKWVNRHKFMFNFLDINGDGKITLDEIVSKASDDICAKLGATPEQTKRHQDAVEAFFKKIGMDYGKEVEFPAFVDGWKELANYDLKLWSQNKKSLIRDWGEAVFDIFDKDGSGSISLDEWKAYGRISGICSSDEDAEKTFKHCDLDNSGNLDVDEMTRQHLGFWYTLDPNADGLYGNFVP | – |
| 335 | 4.78 | 17.4 | 14.2 | 125.8 | Mt-clytin K168Q: Mitochondrial K168Q modified Clytin, SEQ ID NO:20 (protein) MSVLTPLLLRGLTGSARRLPVPRAKIHSLPPEGKLRPNFDNPKWVNRHKFMFNFLDINGDGKITLDEIVSKASDDICAKLGATPEQTKRHQDAVEAFFKKIGMDYGKEVEFPAFVDGWKELANYDLKLWSQNKKSLIRDWGEAVFDIFDKDGSGSISLDEWKAYGRISGICSSDEDAEKTFKHCDLDNSGQLDVDEMTRQHLGFWYTLDPNADGLYGNFVP | – |
